The results in this text go back to patent US20100099079.

The test system of this series is 5-FAM/QXL 520 NS3 FRET substrate.

As to Recombinant HCV NS3/4A protease, the “NS3 FRET activity (5-FAM dequenching)” value is “FRET signal increased with increasing amounts of purified NS3, revealing a linear correlation (R^2=0.999) between NS3 protein levels and FRET activity”.
